Biological target: Clostridium difficile toxin B (Clostridium difficile) (UniProt P18177)
Test: cell-based or functional assay

Sequence of Clostridium difficile toxin B (Clostridium difficile) (P18177 2-2366 limits assumed): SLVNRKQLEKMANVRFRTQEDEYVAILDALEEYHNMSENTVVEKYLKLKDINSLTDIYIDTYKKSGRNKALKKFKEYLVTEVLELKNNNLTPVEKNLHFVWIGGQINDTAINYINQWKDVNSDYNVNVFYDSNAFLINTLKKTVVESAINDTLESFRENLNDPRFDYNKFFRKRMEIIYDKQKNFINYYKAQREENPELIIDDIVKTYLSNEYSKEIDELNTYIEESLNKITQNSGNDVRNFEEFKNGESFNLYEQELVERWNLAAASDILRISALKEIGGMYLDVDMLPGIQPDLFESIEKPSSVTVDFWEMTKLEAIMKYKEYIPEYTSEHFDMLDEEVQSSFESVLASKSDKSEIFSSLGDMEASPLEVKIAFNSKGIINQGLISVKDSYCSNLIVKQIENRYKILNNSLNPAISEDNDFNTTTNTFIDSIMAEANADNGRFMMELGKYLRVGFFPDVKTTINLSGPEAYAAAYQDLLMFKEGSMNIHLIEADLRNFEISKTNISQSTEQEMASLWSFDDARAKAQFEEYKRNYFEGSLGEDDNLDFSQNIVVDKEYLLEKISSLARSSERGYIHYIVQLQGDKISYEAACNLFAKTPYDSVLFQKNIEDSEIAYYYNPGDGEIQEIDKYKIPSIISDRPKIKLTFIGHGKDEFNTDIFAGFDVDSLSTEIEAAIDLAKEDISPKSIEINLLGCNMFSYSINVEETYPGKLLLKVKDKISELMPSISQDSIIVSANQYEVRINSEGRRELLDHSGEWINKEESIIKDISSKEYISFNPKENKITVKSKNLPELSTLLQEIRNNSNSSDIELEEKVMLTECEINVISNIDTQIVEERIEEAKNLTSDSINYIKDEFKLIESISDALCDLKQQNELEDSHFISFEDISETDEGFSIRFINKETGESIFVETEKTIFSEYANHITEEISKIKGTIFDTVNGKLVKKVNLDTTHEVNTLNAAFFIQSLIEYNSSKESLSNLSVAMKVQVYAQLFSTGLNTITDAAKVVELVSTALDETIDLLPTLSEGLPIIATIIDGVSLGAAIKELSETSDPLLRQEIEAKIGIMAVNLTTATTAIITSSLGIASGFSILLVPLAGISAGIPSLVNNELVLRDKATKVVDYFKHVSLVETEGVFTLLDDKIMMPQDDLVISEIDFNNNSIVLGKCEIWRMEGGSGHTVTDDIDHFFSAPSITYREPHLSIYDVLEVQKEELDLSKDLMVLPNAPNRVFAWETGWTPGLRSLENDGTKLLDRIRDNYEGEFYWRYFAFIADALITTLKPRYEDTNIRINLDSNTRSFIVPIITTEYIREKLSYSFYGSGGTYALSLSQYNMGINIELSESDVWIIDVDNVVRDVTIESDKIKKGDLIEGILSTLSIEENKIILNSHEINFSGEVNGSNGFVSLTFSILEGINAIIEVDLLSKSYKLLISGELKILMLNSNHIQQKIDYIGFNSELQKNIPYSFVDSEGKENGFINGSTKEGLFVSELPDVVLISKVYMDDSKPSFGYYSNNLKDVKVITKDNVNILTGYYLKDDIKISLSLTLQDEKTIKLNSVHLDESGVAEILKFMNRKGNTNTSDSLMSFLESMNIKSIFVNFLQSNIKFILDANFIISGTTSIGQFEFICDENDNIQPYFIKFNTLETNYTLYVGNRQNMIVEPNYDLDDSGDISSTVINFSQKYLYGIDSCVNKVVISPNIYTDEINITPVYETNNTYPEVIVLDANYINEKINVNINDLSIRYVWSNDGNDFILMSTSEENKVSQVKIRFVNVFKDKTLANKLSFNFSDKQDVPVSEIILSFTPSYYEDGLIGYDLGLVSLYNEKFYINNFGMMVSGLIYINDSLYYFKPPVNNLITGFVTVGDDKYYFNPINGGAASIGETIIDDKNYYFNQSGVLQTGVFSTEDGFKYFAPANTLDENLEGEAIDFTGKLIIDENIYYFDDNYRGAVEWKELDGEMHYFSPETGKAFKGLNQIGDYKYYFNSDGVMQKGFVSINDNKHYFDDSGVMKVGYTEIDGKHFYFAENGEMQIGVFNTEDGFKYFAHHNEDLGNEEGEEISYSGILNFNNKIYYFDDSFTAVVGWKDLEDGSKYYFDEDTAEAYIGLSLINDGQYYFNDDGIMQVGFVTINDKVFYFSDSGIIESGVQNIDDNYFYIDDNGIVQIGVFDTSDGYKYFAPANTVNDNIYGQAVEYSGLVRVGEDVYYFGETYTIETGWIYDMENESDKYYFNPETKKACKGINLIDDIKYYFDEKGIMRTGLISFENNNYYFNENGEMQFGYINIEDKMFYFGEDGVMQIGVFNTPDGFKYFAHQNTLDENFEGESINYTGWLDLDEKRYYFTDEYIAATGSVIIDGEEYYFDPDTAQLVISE

Work on MDX1388 (antibody) yielded a neutralizing activity (EC50 value), rounding of toxin B-exposed IMR-90 cells of less than 0.1 µg/mL.
